Values quoted from earlier work, collected in paper PMC10580911.

Biological target: Tk-subtilisin (Thermococcus kodakarensis) (UniProt P58502)

Kd: 1.4 nM
Substance: Tk-subtilisin propeptide propeptide (from UniProt P58502)
